Results published in publication doi:10.1101/2021.11.25.470006 (bioRxiv, 2021).

Legend:
Assay in all cases: cryo-EM structure
[1] = target: T1, Smc5 (Walker B mutant E1015Q) (S. cerevisiae, UniProt Q08204 1-1093, E1015Q, BS3-crosslinked within the holo-complex)
T1 sequence: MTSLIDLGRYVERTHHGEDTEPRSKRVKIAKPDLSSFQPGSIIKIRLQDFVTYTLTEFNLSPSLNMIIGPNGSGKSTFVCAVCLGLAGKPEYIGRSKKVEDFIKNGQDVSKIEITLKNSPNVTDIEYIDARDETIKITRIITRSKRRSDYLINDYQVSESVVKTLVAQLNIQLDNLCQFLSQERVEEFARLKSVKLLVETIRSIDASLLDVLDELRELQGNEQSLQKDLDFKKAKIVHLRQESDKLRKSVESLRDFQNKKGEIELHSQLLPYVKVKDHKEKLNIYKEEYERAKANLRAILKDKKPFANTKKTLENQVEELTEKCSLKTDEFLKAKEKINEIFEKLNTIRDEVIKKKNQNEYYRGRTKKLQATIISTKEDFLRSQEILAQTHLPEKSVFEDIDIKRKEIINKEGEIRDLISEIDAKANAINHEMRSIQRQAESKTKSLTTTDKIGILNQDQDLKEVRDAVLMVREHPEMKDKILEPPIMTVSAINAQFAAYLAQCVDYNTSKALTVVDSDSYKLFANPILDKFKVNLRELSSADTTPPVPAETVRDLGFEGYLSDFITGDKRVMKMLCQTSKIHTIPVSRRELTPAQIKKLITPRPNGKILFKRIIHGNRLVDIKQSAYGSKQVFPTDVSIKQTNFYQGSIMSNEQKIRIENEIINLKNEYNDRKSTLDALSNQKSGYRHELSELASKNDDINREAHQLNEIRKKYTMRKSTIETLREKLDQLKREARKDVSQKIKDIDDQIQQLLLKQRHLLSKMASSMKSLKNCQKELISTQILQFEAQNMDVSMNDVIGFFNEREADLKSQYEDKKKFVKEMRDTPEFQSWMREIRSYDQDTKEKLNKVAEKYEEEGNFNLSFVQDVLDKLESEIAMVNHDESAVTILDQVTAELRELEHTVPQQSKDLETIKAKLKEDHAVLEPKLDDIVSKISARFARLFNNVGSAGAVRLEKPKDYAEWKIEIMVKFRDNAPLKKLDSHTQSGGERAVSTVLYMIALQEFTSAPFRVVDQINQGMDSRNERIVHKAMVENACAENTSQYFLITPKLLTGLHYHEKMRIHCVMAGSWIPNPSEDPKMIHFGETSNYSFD

Nse1 = target: T2, Nse1 (S. cerevisiae, UniProt Q07913 1-336, BS3-crosslinked within the holo-complex)
T2 sequence: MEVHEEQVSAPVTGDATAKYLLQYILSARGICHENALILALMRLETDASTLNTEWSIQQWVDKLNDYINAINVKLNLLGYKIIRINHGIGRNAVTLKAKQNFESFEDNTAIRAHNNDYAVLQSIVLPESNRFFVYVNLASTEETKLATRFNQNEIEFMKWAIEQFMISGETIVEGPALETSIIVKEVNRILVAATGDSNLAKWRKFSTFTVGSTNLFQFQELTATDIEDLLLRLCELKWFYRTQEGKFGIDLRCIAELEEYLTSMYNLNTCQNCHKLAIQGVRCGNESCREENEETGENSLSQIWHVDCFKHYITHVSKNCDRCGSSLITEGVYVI

Nse4 (HALO-tagged) = target: T3, Nse4 (HALO-tagged) (S. cerevisiae, UniProt P43124 1-402, BS3-crosslinked within the holo-complex)
T3 sequence: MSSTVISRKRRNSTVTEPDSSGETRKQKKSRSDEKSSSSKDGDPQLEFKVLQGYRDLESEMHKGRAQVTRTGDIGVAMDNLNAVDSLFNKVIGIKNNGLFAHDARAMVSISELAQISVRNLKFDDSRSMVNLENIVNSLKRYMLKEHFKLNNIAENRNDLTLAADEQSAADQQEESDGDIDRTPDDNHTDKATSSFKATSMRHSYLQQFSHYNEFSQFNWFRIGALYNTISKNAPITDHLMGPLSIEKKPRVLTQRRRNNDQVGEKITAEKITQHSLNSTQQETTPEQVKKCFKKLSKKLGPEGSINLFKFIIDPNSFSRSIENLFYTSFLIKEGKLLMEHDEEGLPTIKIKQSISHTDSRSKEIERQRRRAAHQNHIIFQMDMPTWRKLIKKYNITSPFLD

Measured: binding result

B1: Nse3 (natural protein, S. cerevisiae)
chain: MSSIDNDSDVDLTEDLAVAKIVKENPVARKMVRYILSRGESQNSIITRNKLQSVIHEAAREENIAKPSFSKMFMDINAILYNVYGFELQGLPSKNNMNAGGNGSNSNTNKSMPEPLGHRAQKFILLNNVPHSKNFDDFKILQSAHTYEELIVTGEYIGDDIASGTSNTLESKLSTDRDLVYKGVLSVILCIVFFSKNNILHQELIKFLETFGIPSDGSKIAILNITIEDLIKSLEKREYIVRLEEKSDTDGEVISYRIGRRTQAELGLESLEKLVQEIMGLEKEQTKSLHDDIIKSIGDSYSI
modifications: BS3-crosslinked within the holo-complex
binds: all assays above
